The target in data set [1] is ErbB2/delD2 (human ErbB2 lacking ECD subdomain D2) (human) (UniProt P04626). The experiment in a line: ELISA. (In general: ELISA stands for enzyme-linked immunosorbent assay.)
For data set [2], the target named is ErbB2/delD4 (human ErbB2 lacking ECD subdomain D4) (human) (UniProt P04626). In words: ELISA.
Data set [3] deals with the molecule itself.
Data set [4] concerns the target human ErbB2 stably overexpressed in CHO-K1 cells (CHO-K1/ErbB2 cells, pcDNA3-ERBB2) (human, UniProt P04626 23-1255). In words: cross-linking.
Data set [5] concerns the target human ErbB2, wild type, transiently overexpressed in CHO-K1 cells from pCMV6-XL5-ERBB2 (human, UniProt P04626 23-1255). The experiment in a line: ELISA.

Several values for one entry are separate records, joined by “and”; a condition that tells them apart may be missing. Equal values may be shown once.

Usually stoichiometry N stands for the number of molecules, sites or subunits per partner or assembly. What is called Kd is a measure of binding affinity in units of concentration. Higher therefore signals lower affinity.

B1: Recombinant human prolidase (PEPD), wild type (enzyme)
chain: MAAATGPSFWLGNETLKVPLALFALNRQRLCERLRKNPAVQAGSIVVLQGGEETQRYCTDTGVLFRQESFFHWAFGVTEPGCYGVIDVDTGKSTLFVPRLPASHATWMGKIHSKEHFKEKYAVDDVQYVDEIASVLTSQKPSVLLTLRGVNTDSGSVCREASFDGISKFEVNNTILHPEIVECRVFKTDMELEVLRYTNKISSEAHREVMKAVKVGMKEYELESLFEHYCYSRGGMRHSSYTCICGSGENSAVLHYGHAGAPNDRTIQNGDMCLFDMGGEYYCFASDITCSFPANGKFTADQKAVYEAVLRSSRAVMGAMKPGVWWPDMHRLADRIHLEELAHMGILSGSVDAMVQAHLGAVFMPHGLGHFLGIDVHDVGGYPEGVERIDEPGLRSLRTARHLQPGMVLTVEPGIYFIDHLLDEALADPARASFLNREVLQRFRGFGGVRIEEDVVVTDSGIELLTCVPRTVEEIEACMAGCDKAFTPFSGPK
Regarding B1, the fold reduction of binding affinity against wild-type ErbB2 in data set [1] is 3.5 fold; in data set [2], 51 fold. Besides, the “stoichiometry N” value in data set [3] was 2; in data set [4], 2 PEPD per 2 ErbB2 (heterotetramer) and 2 PEPD per 1 ErbB2 (heterotrimer). In data set [5], this molecule displayed a Kd of 7.3 nM.

B2: G278D-PEPD (human PEPD, G→D at amino acid no. 278) (enzyme)
chain: MAAATGPSFWLGNETLKVPLALFALNRQRLCERLRKNPAVQAGSIVVLQGGEETQRYCTDTGVLFRQESFFHWAFGVTEPGCYGVIDVDTGKSTLFVPRLPASHATWMGKIHSKEHFKEKYAVDDVQYVDEIASVLTSQKPSVLLTLRGVNTDSGSVCREASFDGISKFEVNNTILHPEIVECRVFKTDMELEVLRYTNKISSEAHREVMKAVKVGMKEYELESLFEHYCYSRGGMRHSSYTCICGSGENSAVLHYGHAGAPNDRTIQNGDMCLFDMDGEYYCFASDITCSFPANGKFTADQKAVYEAVLRSSRAVMGAMKPGVWWPDMHRLADRIHLEELAHMGILSGSVDAMVQAHLGAVFMPHGLGHFLGIDVHDVGGYPEGVERIDEPGLRSLRTARHLQPGMVLTVEPGIYFIDHLLDEALADPARASFLNREVLQRFRGFGGVRIEEDVVVTDSGIELLTCVPRTVEEIEACMAGCDKAFTPFSGPK
Regarding B2, the “stoichiometry N” value in data set [3] came out at 2.

The values above are taken from article PMC4047914 (Cell Death & Disease, 2014).
